{"source": "patent US20230165981A1", "about": "“[161Tb]-BASED RADIOPEPTIDES” (priority 2021, published 2023)", "assay": "Biodistribution: optimum injected molar amount", "settings": "female, mouse, in vivo, iv, total radioactivity, 2 h p.i."}
{"smiles": "C[C@@H](O)[C@@H]1NC(=O)[C@H](CCCCN)NC(=O)[C@@H](Cc2c[nH]c3ccccc23)NC(=O)[C@H](Cc2ccc(O)cc2)NC(=O)[C@@H](NC(=O)[C@@H](Cc2ccccc2)NC(=O)CN2CCN(CC(=O)O)CCN(CC(=O)O)CCN(CC(=O)O)CC2)CSSC[C@@H](C(=O)N[C@H](CO)[C@@H](C)O)NC1=O", "note": "[[^161Tb]Tb-DOTATOC, metal not drawn]", "values": [{"measurement": "tissue uptake at 2 h", "setting": "CD-1 Foxn-1nu athymic nude, 0.04 nmol/mouse, Biodistribution: Adrenals, 0.040 nmol/mouse", "value": "0.65 ± 0.08", "unit": "%ID/g"}, {"measurement": "tissue uptake at 2 h", "setting": "CD-1 Foxn-1nu athymic nude, 0.04 nmol/mouse, Biodistribution: Kidneys, 0.040 nmol/mouse", "value": "9 ± 2", "unit": "%ID/g"}, {"measurement": "tissue uptake at 2 h", "setting": "CD-1 Foxn-1nu athymic nude, 0.2 nmol/mouse, Biodistribution: Heart, 0.20 nmol/mouse", "value": "< 0.1", "unit": "%ID/g"}, {"measurement": "tissue uptake at 2 h", "setting": "athymic nude (CD-1 Foxn-1nu), 0.04 nmol/mouse, Biodistribution: AR42J Tumor, 0.040 nmol/mouse", "value": "16 ± 4", "unit": "%ID/g"}, {"measurement": "tissue uptake at 2 h", "setting": "athymic nude (CD-1 Foxn-1nu), 0.04 nmol/mouse, Biodistribution: Blood, 0.040 nmol/mouse", "value": "< 0.1", "unit": "%ID/g"}, {"measurement": "tissue uptake at 2 h", "setting": "athymic nude (CD-1 Foxn-1nu), 0.04 nmol/mouse, Biodistribution: Heart, 0.040 nmol/mouse", "value": "< 0.1", "unit": "%ID/g"}, {"measurement": "tissue uptake at 2 h", "setting": "athymic nude (CD-1 Foxn-1nu), 0.04 nmol/mouse, Biodistribution: Muscle, 0.040 nmol/mouse", "value": "< 0.1", "unit": "%ID/g"}, {"measurement": "tissue uptake at 2 h", "setting": "athymic nude (CD-1 Foxn-1nu), 0.2 nmol/mouse, Biodistribution: AR42J Tumor, 0.20 nmol/mouse", "value": "14 ± 1", "unit": "%ID/g"}, {"measurement": "tissue uptake at 2 h", "setting": "athymic nude (CD-1 Foxn-1nu), 0.2 nmol/mouse, Biodistribution: Blood, 0.20 nmol/mouse", "value": "< 0.1", "unit": "%ID/g"}, {"measurement": "tissue uptake at 2 h", "setting": "athymic nude (CD-1 Foxn-1nu), 0.2 nmol/mouse, Biodistribution: Muscle, 0.20 nmol/mouse", "value": "< 0.1", "unit": "%ID/g"}, {"measurement": "tissue uptake at 2 h", "setting": "athymic nude (CD-1 Foxn-1nu), 1 nmol/mouse, Biodistribution: AR42J Tumor, 1.0 nmol/mouse", "value": "~8", "unit": "%ID/g"}, {"measurement": "tissue uptake at 2 h", "setting": "athymic nude (CD-1 Foxn-1nu), kidney uptake, irrespective of the applied setting (0.04-1.0 nmol)", "value": "~10", "unit": "%ID/g"}]}
